According to publication PMC6644640:

Target: prostate-specific antigen (PSA), enzymatically active, from human seminal fluid (human, UniProt P07288 25-261)
Test: chemiluminescence sandwich assay on Si NW surface

Chain of prostate-specific antigen (PSA), enzymatically active, from human seminal fluid (P07288 25-261): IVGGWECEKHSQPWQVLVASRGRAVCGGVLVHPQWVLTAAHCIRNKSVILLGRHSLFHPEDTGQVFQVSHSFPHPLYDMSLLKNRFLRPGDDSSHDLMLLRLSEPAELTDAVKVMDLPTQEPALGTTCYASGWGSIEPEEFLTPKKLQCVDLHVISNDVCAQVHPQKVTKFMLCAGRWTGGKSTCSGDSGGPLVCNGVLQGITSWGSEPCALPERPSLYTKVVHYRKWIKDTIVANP

B1: nonspecific aptamer (32 nt control) (ssDNA)
DNA: AAAAATTAATTTCGAGCGGTAGTTTATCGAAA
modifications: 5'-H3N-(CH2)6
Does B1 bind?
Result: no binding
